In test [1] the target is T1, SARS-CoV-2 spike receptor binding domain (RBD) (SARS-CoV-2, UniProt P0DTC2 328-533).
For test [2], the target named is T1, SARS-CoV-2 spike receptor binding …. Nature of the test: SPR, biotinylated RBD on CAP chip.

B1: Nb6 (VHH)
VHH: QVQLVESGGGLVQAGGSLRLSCAASGIIFGRNAMGWYRQAPGKERELVAGITRRGSITYYADSVKGRFTISRDNAKNTVYLQMNSLKPEDTAVYYCAADPASPAPGDYWGQGTQVTVSS
notes: also called AeroNab6; NbCOV6
In general, EC50 refers to the concentration needed to bring the measured effect to its halfway point. For orientation: Kd means the equilibrium constant for the complex coming apart. A high value points to weaker binding. In test [1], B1 yielded an EC50 of 190 nM. This molecule also gave a Kd in test [2] of 41 nM.

Source of the values: CN116472284A (UNIV CALIFORNIA, dated 2023).
